Columns and labels:
Q13148 [1] = assay: NMR HSQC peak intensities (fraction of globular monomer); 1 mM RRM2 under oxidation with 5 mM H2O2 (2 h or 24 h); loss of monomer signals taken as conversion into oligomers and aggregate particles; standard phosphate buffer pH 6.7; details: other: NMR HSQC peak intensities (fraction of globular monomer)
[2] = biological target: second RNA-recognition motif (RRM2) of TDP-43, wild type, residues 191-265 (human) (UniProt Q13148); assay: as above
Q13148 [3] = assay: dynamic light scattering + other: pulsed-field-gradient NMR diffusion; fully oxidized sample (5 mM H2O2, about 31 h); size distribution of aggregate particles fitted to both diffusion coefficients (Eq. 6), NMR on peak N265'
[4] = biological target: second RNA-recognition motif (RRM2) of TDP-43, wild type, residues 191-265 (human) (UniProt Q13148); assay: cross-linking; disulfide-linked oligomers on non-reducing SDS-PAGE (14% tris-glycine, Coomassie, densitometry); 1 mM protein incubated 2 h with 5 mM H2O2
Q13148 [5] = assay: NMR HSQC peak intensities (fraction of globular monomer); reduced samples: first treated with 5 mM H2O2, then with 25 mM DTT; details: other: NMR HSQC peak intensities (fraction of globular monomer)
[6] = biological target: second RNA-recognition motif (RRM2) of TDP-43, wild type, residues 191-265 (human) (UniProt Q13148); assay: as above

B1: second RNA-recognition motif (RRM2) of TDP-43, wild type, residues 191-265 (protein)
chain: MRKVFVGRCTEDMTEDELREFFSQYGDVMDVFIPKPFRAFAFVTFADDQIAQSLCGEDLIIKGISVHISNAEPKHN
- percent of the protein in aggregate particles after 2 h with 5 mM H2O2 (Q13148 [1]): 60% (±4%) of the protein has been transformed into APs
- percent (mass fraction) left as globular monomer after 24 h with 5 mM H2O2 [2]: 4.5%
- percent left as globular monomer after 2 h with 5 mM H2O2 [2]: 40%
- mass fraction of the aggregate mass in all other aggregate particles (Q13148 [3]): all other APs combined account for 83% of the aggregate mass
- mass fraction of the aggregate mass that is disulfide-bonded dimers (Q13148 [3]): The mass fraction of the disulfide-bonded dimers is 17%
- fraction of cross-linked protein molecules (gel densitometry, 2 h with 5 mM H2O2) [4]: 40%
- percent of protein mass still aggregated after 2 h oxidation and 3 h reduction (Q13148 [5]): ca. 19% of the protein by mass remains in the aggregate form
- percent of protein mass still aggregated after 24 h oxidation and 24 h reduction (Q13148 [5]): ca. 40% of the protein mass in this sample remains in the aggregated state
- percent monomer in the reduced samples [6]: 84%
